Measurements: PMC11764028 (Bioactive Materials, 2025)

Target: the molecule itself
Experiment: SEC + native gel or EMSA

B1: dual-functional fusion protein KFS (KALA peptide - human ferritin light chain - SIINFEKL) (other)
chain: WEAKLAKALAKALAKHLAKALAKALKAIRQNYSTDVEAAVNSLVNLYLQASYTYLSLGFYFDRDDVALEGVSHFFRELAEEKREGYERLLKMQNQRGGRALFQDIKKPAEDEWGKTPDAMKAAMALEKKLNQALLDLHALGSARTDPHLCDFLETHFLDEEVKLIKKMGDHLTNLHRGGGGSGGGGSGGGGSSIINFEKL
stoichiometry N: 40
